The supplement of paper PMC7877785
± gives the uncertainty stated by the source.

Assay: self-splicing fitness, log relative to wild type (ln ratio); higher = more splicing; Tetrahymena group I intron in knt gene, E. coli kanamycin selection, DiMSum; sequences stand for … in CUCUCU…GGAGGGAAAAGUUAUCAGGCAUGCACCUGGUAGCUAGUCUUUAAACCAAUAGAUUGCAUCGGUUUAAAAGGCAAGACCGUCAAAUUGCGGGAAAGGGGUCAACAGCCGUUCAGUACCAAGUCUCAGGGGAAACUUUGAGAUGGCCUUGCAAAGGGUAUGGUAAUAAGCUGACGGACAUGGUCCUAACCACGCAGCCAAGUCCUAAGUCAACAGAUCUUCUGUUGAUAUGGAUGCAGUUCACAGACUAAAUGUCGGUCGGGGAAGAUGUAUUCUUCUCAUAAGAUAUAGUCGGACCUCUCCUUAAUGGGAGCUAGCGGAUGAAGUGAUGCAACACUGGAGCCGCUGGGAACUAAUUUGUAUGCGAAAGUAUAUUGAUUAGUUUUGGAGUACUCGUGGUCG
Procedure, shortened: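 Colonies from six replicate transformations of E. coli BL21(DE3) were pooled and amplicon-sequenced on an Illumina HiSeq 2500. The library placed an intron with all eight P1ex-region nucleotides randomised inside the knt kanamycin-resistance gene on pET-22b(+), and cells grew overnight at 37°C or 30°C on LB agar with or without 25 μg/mL kanamycin (plus 100 μg/mL carbenicillin, 50 μM IPTG, 0.2% rhamnose). Fitness is the DiMSum error-weighted combination of wild-type-normalised replicate fold changes, kanamycin versus none.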

Row | Sequence | self-splicing fitness (ln) (30 °C) | self-splicing fitness (ln) (37 °C)
1 | AAGAAGCAAUAUUACGGGGG | -2.79 ± 0.21 | -2.09 ± 0.23
2 | AAGAAGCAAUAUUACGGUAG | -3.76 ± 0.19 | -1.83 ± 0.17
3 | AAGAAGCAAUAUUACGGUUG | -2.72 ± 0.092 | -1.32 ± 0.11
4 | AAGAAGCAAUAUUACGUAAC | -2.35 ± 0.14 | -1.2 ± 0.12
5 | AAGAAGCAAUAUUACGUACG | -0.925 ± 0.092 | -0.719 ± 0.11
6 | AAGAAGCAAUAUUACGUCAC | -3.46 ± 0.21 | -3 ± 0.28
7 | AAGAAGCAAUAUUACGUGCG | -0.93 ± 0.079 | -0.0711 ± 0.1
8 | AAGAAGCAAUAUUACGUUAC | -3.33 ± 0.17 | -3.57 ± 0.25
9 | AAGAAGCAAUAUUACGUUCU | -2.55 ± 0.11 | -1.26 ± 0.1
10 | AAGCAGCAAUAUUACGAAGA | -3.03 ± 0.19 | -1.44 ± 0.097
11 | AAGCAGCAAUAUUACGACCC | -1.78 ± 0.14 | -0.112 ± 0.15
12 | AAGCAGCAAUAUUACGACGC | -0.811 ± 0.092 | -0.525 ± 0.13
13 | AAGCAGCAAUAUUACGACUC | -0.122 ± 0.097 | 0.677 ± 0.13
14 | AAGCAGCAAUAUUACGAGUG | -2.99 ± 0.1 | -2.69 ± 0.11
15 | AAGCAGCAAUAUUACGAUUG | -2.54 ± 0.13 | -1.9 ± 0.14
16 | AAGCAGCAAUAUUACGCAAC | -2.62 ± 0.12 | -1.49 ± 0.13
17 | AAGCAGCAAUAUUACGCACA | -0.331 ± 0.082 | 0.0315 ± 0.11
18 | AAGCAGCAAUAUUACGGACG | -2.62 ± 0.14 | -0.565 ± 0.14
19 | AAGCAGCAAUAUUACGGACU | -0.985 ± 0.078 | -0.121 ± 0.11
20 | AAGCAGCAAUAUUACGGAGC | -3.81 ± 0.37 | -3.05 ± 0.23
21 | AAGCAGCAAUAUUACGGGCU | -1.64 ± 0.14 | -1.93 ± 0.21
22 | AAGCAGCAAUAUUACGGGUG | -3.43 ± 0.13 | -1.85 ± 0.1
23 | AAGCAGCAAUAUUACGGUAA | -1.25 ± 0.091 | -0.944 ± 0.094
24 | AAGCAGCAAUAUUACGGUCA | -1.19 ± 0.088 | 0.242 ± 0.1

Row | Sequence | self-splicing fitness (ln) (30 °C) | self-splicing fitness (ln) (37 °C)
25 | AAGCAGCAAUAUUACGUACA | -1.43 ± 0.091 | -0.617 ± 0.11
26 | AAGCAGCAAUAUUACGUAUC | -3.07 ± 0.1 | -1.62 ± 0.12
27 | AAGCAGCAAUAUUACGUCCG | -2.15 ± 0.12 | -1.13 ± 0.11
28 | AAGCAGCAAUAUUACGUGAA | -1.35 ± 0.067 | -1.05 ± 0.077
29 | AAGCAGCAAUAUUACGUGAG | -1.07 ± 0.045 | -0.437 ± 0.066
30 | AAGCAGCAAUAUUACGUUAC | -3.42 ± 0.29 | -1.35 ± 0.18
31 | AAGCAGCAAUAUUACGUUCC | -1.73 ± 0.11 | -1.54 ± 0.17
32 | AAGGAGCAAUAUUACGACGC | -4.09 ± 0.43 | -1.13 ± 0.21
33 | AAGGAGCAAUAUUACGACUA | -1.51 ± 0.17 | -0.705 ± 0.27
34 | AAGGAGCAAUAUUACGAGCA | -2.24 ± 0.45 | -0.592 ± 0.4
35 | AAGGAGCAAUAUUACGAUCA | -1.18 ± 0.36 | –
36 | AAGGAGCAAUAUUACGAUCC | – | 0.127 ± 0.31
37 | AAGGAGCAAUAUUACGCCGC | – | -2.04 ± 0.5
38 | AAGGAGCAAUAUUACGCGAU | -2.06 ± 0.15 | -2.29 ± 0.28
39 | AAGGAGCAAUAUUACGCUAU | -3.76 ± 0.4 | -1.69 ± 0.26
40 | AAGGAGCAAUAUUACGGAUG | -3.8 ± 0.21 | -3.29 ± 0.35
41 | AAGGAGCAAUAUUACGGCCC | -2.25 ± 0.26 | -1.37 ± 0.34
42 | AAGGAGCAAUAUUACGGGAC | -2.34 ± 0.23 | -2.36 ± 0.41
43 | AAGGAGCAAUAUUACGGUCC | -2.13 ± 0.18 | -2.03 ± 0.27
44 | AAGGAGCAAUAUUACGUAAU | -3.8 ± 0.16 | -2.27 ± 0.15
45 | AAGGAGCAAUAUUACGUCUA | -0.839 ± 0.24 | -0.933 ± 0.27
46 | AAGGAGCAAUAUUACGUGGC | -3.79 ± 0.19 | -2.37 ± 0.2
47 | AAGUAGCAAUAUUACGAGCG | -0.709 ± 0.14 | -1.11 ± 0.19
48 | AAGUAGCAAUAUUACGAUAG | -2.72 ± 0.16 | -2.64 ± 0.36

Row | Sequence | self-splicing fitness (ln) (30 °C) | self-splicing fitness (ln) (37 °C)
49 | AAGUAGCAAUAUUACGAUCG | -1.43 ± 0.1 | -0.453 ± 0.15
50 | AAGUAGCAAUAUUACGCAUC | -3.84 ± 0.47 | -1.08 ± 0.23
51 | AAGUAGCAAUAUUACGCCAG | -2.64 ± 0.21 | -0.996 ± 0.24
52 | AAGUAGCAAUAUUACGCUAG | -1.57 ± 0.17 | -1.04 ± 0.2
53 | AAGUAGCAAUAUUACGCUGC | – | -0.747 ± 0.19
54 | AAGUAGCAAUAUUACGGAAU | -3.66 ± 0.2 | -1.52 ± 0.16
55 | AAGUAGCAAUAUUACGGAUC | -1.17 ± 0.083 | -0.819 ± 0.12
56 | AAGUAGCAAUAUUACGGCCG | -1.34 ± 0.12 | -0.293 ± 0.18
57 | AAGUAGCAAUAUUACGGCUA | -1.01 ± 0.085 | -0.475 ± 0.095
58 | AAGUAGCAAUAUUACGGCUC | -0.15 ± 0.12 | 0.32 ± 0.15
59 | AAGUAGCAAUAUUACGGUAA | -1.12 ± 0.17 | -0.903 ± 0.13
60 | AAGUAGCAAUAUUACGUAAA | -1.09 ± 0.095 | -0.434 ± 0.14
61 | AAGUAGCAAUAUUACGUAAG | -2.48 ± 0.13 | -1.43 ± 0.14
62 | AAGUAGCAAUAUUACGUACC | -0.997 ± 0.16 | -0.0515 ± 0.15
63 | AAGUAGCAAUAUUACGUACG | -1.29 ± 0.088 | -0.0022 ± 0.11
64 | AAGUAGCAAUAUUACGUCUA | -0.618 ± 0.09 | 0.263 ± 0.1
65 | AAGUAGCAAUAUUACGUGCG | -1.48 ± 0.12 | -0.495 ± 0.15
66 | AAGUAGCAAUAUUACGUGUG | -2.07 ± 0.099 | -1.15 ± 0.094
67 | AAUAAGCAAUAUUACGAAAG | -3.68 ± 0.27 | -1.37 ± 0.22
68 | AAUAAGCAAUAUUACGAACC | -1.33 ± 0.15 | -0.414 ± 0.18
69 | AAUAAGCAAUAUUACGAAGA | -1.52 ± 0.26 | -1.92 ± 0.32
70 | AAUAAGCAAUAUUACGAAUC | -2.45 ± 0.21 | -0.866 ± 0.23
71 | AAUAAGCAAUAUUACGACGC | -0.19 ± 0.093 | 0.0933 ± 0.12
72 | AAUAAGCAAUAUUACGACGG | -2.35 ± 0.15 | -1.34 ± 0.19

Row | Sequence | self-splicing fitness (ln) (30 °C) | self-splicing fitness (ln) (37 °C)
73 | AAUAAGCAAUAUUACGACUA | -0.696 ± 0.12 | -0.486 ± 0.093
74 | AAUAAGCAAUAUUACGAGCG | -1.5 ± 0.15 | -0.155 ± 0.17
75 | AAUAAGCAAUAUUACGAUCG | -1 ± 0.081 | -0.0681 ± 0.096
76 | AAUAAGCAAUAUUACGCACC | -0.414 ± 0.13 | 0.346 ± 0.13
77 | AAUAAGCAAUAUUACGCAGG | -1.85 ± 0.14 | -2.12 ± 0.15
78 | AAUAAGCAAUAUUACGCAGU | -3.08 ± 0.22 | -2.04 ± 0.19
79 | AAUAAGCAAUAUUACGCUGA | -1.81 ± 0.17 | -1.63 ± 0.18
80 | AAUAAGCAAUAUUACGGAAC | -4.53 ± 0.34 | -2.16 ± 0.23
81 | AAUAAGCAAUAUUACGGACA | -0.911 ± 0.13 | 0.0108 ± 0.14
82 | AAUAAGCAAUAUUACGGCGA | -0.134 ± 0.079 | -0.274 ± 0.1
83 | AAUAAGCAAUAUUACGGGAU | -2.73 ± 0.15 | -1.33 ± 0.14
84 | AAUAAGCAAUAUUACGGGCC | -2.8 ± 0.39 | -2.21 ± 0.31
85 | AAUAAGCAAUAUUACGGGGA | -3.01 ± 0.21 | -1.42 ± 0.16
86 | AAUAAGCAAUAUUACGGGUU | -2.37 ± 0.13 | -1.43 ± 0.16
87 | AAUAAGCAAUAUUACGGUCC | -1.47 ± 0.14 | -0.63 ± 0.22
88 | AAUAAGCAAUAUUACGUAAG | -2.06 ± 0.072 | -0.567 ± 0.084
89 | AAUAAGCAAUAUUACGUAGG | -2.11 ± 0.16 | -0.935 ± 0.17
90 | AAUAAGCAAUAUUACGUCAA | -2.29 ± 0.14 | -2.06 ± 0.12
91 | AAUAAGCAAUAUUACGUCGG | -1.91 ± 0.14 | -1.75 ± 0.18
92 | AAUAAGCAAUAUUACGUUCU | -0.338 ± 0.077 | 0.0226 ± 0.11
93 | AAUAAGCAAUAUUACGUUGA | -2.96 ± 0.22 | -2.62 ± 0.2
94 | AAUCAGCAAUAUUACGAAUG | -0.581 ± 0.069 | -0.488 ± 0.12
95 | AAUCAGCAAUAUUACGACCU | 0.207 ± 0.09 | 0.538 ± 0.096
96 | AAUCAGCAAUAUUACGAGGU | -2.3 ± 0.12 | -1.36 ± 0.15
